Measurements taken from EP4582451A1 (Changchun Genescience Pharmaceutical Co., Ltd., dated 2025).
Where two headings read alike, the source gives them in different places.

Assays:
[1] = molecular target: T1, mouse thyroid-stimulating hormone receptor (TSHR) (mouse, UniProt P47750 22-764); test: flow cytometry (FACS), 293 cells overexpressing mouse TSHR
T1 construct: whole, on cells; Overexpressed on 293 cells; also called mouse TSHR; murine TSHR

[2] = molecular target: T2, human thyroid-stimulating hormone receptor (TSHR) (human, UniProt P16473 21-764); test: cell-based or functional assay
T2 sequence (P16473 21-764): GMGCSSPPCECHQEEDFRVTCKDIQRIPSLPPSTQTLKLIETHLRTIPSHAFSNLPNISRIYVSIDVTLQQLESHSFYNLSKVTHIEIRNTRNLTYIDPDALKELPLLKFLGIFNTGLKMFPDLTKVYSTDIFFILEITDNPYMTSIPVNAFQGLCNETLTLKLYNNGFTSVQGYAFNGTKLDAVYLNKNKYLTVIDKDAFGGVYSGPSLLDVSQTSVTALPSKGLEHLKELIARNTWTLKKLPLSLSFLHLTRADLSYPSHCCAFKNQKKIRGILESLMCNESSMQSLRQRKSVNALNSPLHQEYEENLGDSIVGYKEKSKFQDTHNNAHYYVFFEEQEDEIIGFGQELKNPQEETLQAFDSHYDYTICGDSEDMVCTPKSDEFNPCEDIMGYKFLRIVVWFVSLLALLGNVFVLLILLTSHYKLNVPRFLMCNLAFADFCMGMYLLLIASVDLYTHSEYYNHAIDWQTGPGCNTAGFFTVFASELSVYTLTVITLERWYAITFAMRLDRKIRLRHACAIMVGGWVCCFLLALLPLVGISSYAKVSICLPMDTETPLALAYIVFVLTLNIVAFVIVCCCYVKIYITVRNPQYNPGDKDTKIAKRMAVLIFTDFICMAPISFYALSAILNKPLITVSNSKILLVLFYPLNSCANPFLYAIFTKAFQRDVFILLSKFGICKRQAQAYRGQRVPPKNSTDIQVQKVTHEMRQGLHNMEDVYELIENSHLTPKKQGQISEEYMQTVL

[3] = molecular target: T2, human thyroid-stimulating hormone …; test: cell-based or functional assay; remark: listed apart in the source
[4] = molecular target: T3, hFcRn-Avi (Biosystems, FCM-H82W7) (human (printed as hFcRn), UniProt P55899 24-297; P61769 21-119, biotin on the Avi tag is implied by capture on an SA chip); test: SPR (Biacore 8K+), hFcRn-Avi captured on SA chip, antibody in flow, pH 6.0, 25 C, steady-state fit
T3 construct: Bought reagent

[5] = molecular target: T4, monkey thyroid-stimulating hormone receptor (TSHR) (monkey, UniProt A0A2K5X226 21-764); test: flow cytometry (FACS), 293 cells overexpressing monkey TSHR
T4 construct: Overexpressed on 293 cells; also called monkey TSHR
T4 sequence (A0A2K5X226 entry or part of it limits assumed, form in doubt): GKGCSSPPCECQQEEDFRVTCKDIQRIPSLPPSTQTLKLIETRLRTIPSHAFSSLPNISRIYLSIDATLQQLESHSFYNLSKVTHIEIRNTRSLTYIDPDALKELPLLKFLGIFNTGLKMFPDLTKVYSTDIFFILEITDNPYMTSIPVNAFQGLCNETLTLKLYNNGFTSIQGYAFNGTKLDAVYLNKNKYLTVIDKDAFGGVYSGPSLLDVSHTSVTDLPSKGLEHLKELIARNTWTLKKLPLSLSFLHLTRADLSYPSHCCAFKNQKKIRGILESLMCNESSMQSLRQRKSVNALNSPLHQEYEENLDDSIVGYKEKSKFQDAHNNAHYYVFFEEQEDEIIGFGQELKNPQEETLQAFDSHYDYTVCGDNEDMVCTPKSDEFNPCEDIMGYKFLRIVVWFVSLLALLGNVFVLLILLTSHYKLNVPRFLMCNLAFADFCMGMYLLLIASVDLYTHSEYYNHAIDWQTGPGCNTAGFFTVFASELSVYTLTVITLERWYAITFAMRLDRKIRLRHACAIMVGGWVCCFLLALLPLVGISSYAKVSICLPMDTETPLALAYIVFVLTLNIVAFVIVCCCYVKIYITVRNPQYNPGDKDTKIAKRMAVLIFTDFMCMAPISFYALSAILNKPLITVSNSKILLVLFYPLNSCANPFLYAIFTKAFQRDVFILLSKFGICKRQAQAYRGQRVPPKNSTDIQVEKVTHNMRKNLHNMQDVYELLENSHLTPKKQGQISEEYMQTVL

[6] = molecular target: T2, human thyroid-stimulating hormone …; test: flow cytometry (FACS), 293 cells overexpressing human TSHR
[7] = molecular target: T2, human thyroid-stimulating hormone …; test: cell-based or functional assay; remark: listed apart in the source
[8] = molecular target: T1, mouse thyroid-stimulating hormone …; test: flow cytometry (FACS), 293 cells overexpressing mouse TSHR; remark: listed apart in the source
[9] = molecular target: T2, human thyroid-stimulating hormone …; test: flow cytometry (FACS), 293 cells overexpressing human TSHR; remark: listed apart in the source
[10] = molecular target: T4, monkey thyroid-stimulating hormone …; test: flow cytometry (FACS), 293 cells overexpressing monkey TSHR; remark: listed apart in the source

T1 sequence (P47750 22-764): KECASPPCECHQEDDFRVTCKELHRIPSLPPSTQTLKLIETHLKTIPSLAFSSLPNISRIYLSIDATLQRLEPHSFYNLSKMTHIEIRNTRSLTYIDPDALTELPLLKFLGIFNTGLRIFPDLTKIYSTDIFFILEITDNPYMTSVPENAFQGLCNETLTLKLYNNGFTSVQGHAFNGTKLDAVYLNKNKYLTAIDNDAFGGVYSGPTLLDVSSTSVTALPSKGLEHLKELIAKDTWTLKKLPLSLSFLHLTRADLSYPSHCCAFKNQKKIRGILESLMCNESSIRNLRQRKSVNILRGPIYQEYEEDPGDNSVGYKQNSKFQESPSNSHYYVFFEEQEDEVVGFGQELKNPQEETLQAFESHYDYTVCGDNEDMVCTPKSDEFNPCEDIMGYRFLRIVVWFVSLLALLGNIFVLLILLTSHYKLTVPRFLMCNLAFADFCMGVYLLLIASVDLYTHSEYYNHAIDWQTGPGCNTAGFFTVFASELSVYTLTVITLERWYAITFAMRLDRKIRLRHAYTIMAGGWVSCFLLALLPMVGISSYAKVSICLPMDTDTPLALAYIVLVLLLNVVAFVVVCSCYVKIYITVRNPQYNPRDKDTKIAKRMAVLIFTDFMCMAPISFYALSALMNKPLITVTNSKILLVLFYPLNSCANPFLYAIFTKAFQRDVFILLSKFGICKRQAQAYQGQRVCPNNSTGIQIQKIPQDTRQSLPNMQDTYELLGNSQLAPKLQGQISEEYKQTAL

| EC50 [1] [nM] | Maximum binding signal [1] | IC50(nM), cAMP in 293-human TSHR cells activated by Tab01 (30 nM) [2] [nM] | IC50(nM), cAMP in 293-human TSHR cells activated by Tab02 (6.5 nM) [2] [nM] | IC50 (nM), cAMP in 293-human TSHR cells activated by Tab01 [3] [nM] | IC50 (nM), cAMP in 293-human TSHR cells activated by Tab02 [3] [nM] | Maximum inhibition rate (%), cAMP in 293-human TSHR cells activated by Tab01 [3] [%] | Maximum inhibition rate (%), cAMP in 293-human TSHR cells activated by Tab02 [3] [%] | Kd [4] [nM] | Response value (RU) [4] [RU] | EC50 [5] [nM] | Maximum binding signal [5] | Binder | other results |
| --- | --- | --- | --- | --- | --- | --- | --- | --- | --- | --- | --- | --- | --- |
| 3.22 | 123000 | 2.2 | 2.2 | 2.28 | 2.4 | 102 | 94.2 | 343 | 35.8 | 2.6 | 193000 | humanized antibody cAb01-VH2-DA-VL3 (named hAb01_G4P) (antibody, human IgG4 S228P, kappa) heavy: not shown light: EIVLTQSPATLSLSPGERATLSCSASSSVSYMHWYQQKPGQAPKRWIYDTSKLASGVPARFSGSGSGTDYTLTISSLEPEDFAVYYCQQWSSNPWTFGGGTKLEIKRTVAAPSVFIFPPSDEQLKSGTASVVCLLNNFYPREAKVQWKVDNALQSGNSQESVTEQDSKDSTYSLSSTLTLSKADYEKHKVYACEVTHQGLSSPVTKSFNRGEC |  |
| 2.16 | 117000 |  |  |  |  |  |  |  |  | 2.14 | 193000 | humanized antibody cAb01-VH2-DA-VL2 (antibody, human IgG4 S228P, kappa, V domains shown, Humanized from mAb001) VH: EVQLVESGGGLVKPGGSLRLSCAASGFTLSDYYIYWVRQAPGKGLEWVATISDAVIYTYYADSVKGRFTISRDNAKNSLYLQMNSLRAEDTAVYFCARAYGSSEVMDYWGQGTLVTVSS VL: EIVLTQSPATLSLSPGERATLSCSASSSVSYMHWYQQKPGQAPRRWIYDTSKLASGIPARFSGSGSGTDYTLTISSLEPEDFAVYYCQQWSSNPWTFGGGTKLEIKR | EC50 [6]: 3.71 nM; Maximum binding signal [6]: 396000; IC50(nM), cAMP in 293-human TSHR cells activated by Tab01 (30 nM) [7]: 0.28 nM; IC50(nM), cAMP in 293-human TSHR cells activated by Tab02 (6.5 nM) [7]: 0.15 nM; Inhibition rate (%), cAMP in 293-human TSHR cells activated by Tab01 (30 nM) [7]: 76.7%; Inhibition rate (%), cAMP in 293-human TSHR cells activated by Tab02 (6.5 nM) [7]: 86.2% |
| 2.9 | 106000 | 0.085 | 0.054 |  |  |  |  |  |  | 2.3 | 180000 | humanized antibody cAb01-VH1-DA-VL3 (antibody, human IgG4 S228P, kappa, V domains shown, Humanized from mAb001) VH: EVQLVESGGGLVKPGGSLRLSCAASGFTLSDYYIYWVRQAPGKGLEWVSTISDAVIYTYYADSVKGRFTISRDNAKNSLYLQMNSLRAEDTAVYYCARAYGSSEVMDYWGQGTLVTVSS VL: EIVLTQSPATLSLSPGERATLSCSASSSVSYMHWYQQKPGQAPKRWIYDTSKLASGVPARFSGSGSGTDYTLTISSLEPEDFAVYYCQQWSSNPWTFGGGTKLEIKR |  |
|  |  |  |  | 5.4 | 2.04 | 94 | 91.1 | 90 | 94.5 |  |  | hAb01_G1_V4 (antibody, human IgG1, kappa, L234A L235A) heavy: EVQLVESGGGLVKPGGSLRLSCAASGFTLSDYYIYWVRQAPGKGLEWVATISDAVIYTYYADSVKGRFTISRDNAKNSLYLQMNSLRAEDTAVYFCARAYGSSEVMDYWGQGTLVTVSSASTKGPSVFPLAPSSKSTSGGTAALGCLVKDYFPEPVTVSWNSGALTSGVHTFPAVLQSSGLYSLSSVVTVPSSSLGTQTYICNVNHKPSNTKVDKKVEPKSCDKTHTCPPCPAPEAAGGPSVFLFPPKPKDTLYITREPEVTCVVVDVSHEDPEVKFNWYVDGVEVHNAKTKPREEQYNSTYRVVSVLTVLHQDWLNGKEYKCKVSNKALPAPIEKTISKAKGQPREPQVYTLPPSRDELTKNQVSLTCLVKGFYPSDIAVEWESNGQPENNYKTTPPVLDSDGSFFLYSKLTVDKSRWQQGNVFSCSVMHEALHNHYTQKSLSLSPGK light: EIVLTQSPATLSLSPGERATLSCSASSSVSYMHWYQQKPGQAPKRWIYDTSKLASGVPARFSGSGSGTDYTLTISSLEPEDFAVYYCQQWSSNPWTFGGGTKLEIKRTVAAPSVFIFPPSDEQLKSGTASVVCLLNNFYPREAKVQWKVDNALQSGNSQESVTEQDSKDSTYSLSSTLTLSKADYEKHKVYACEVTHQGLSSPVTKSFNRGEC | EC50 [8]: 2.75 nM; Max_MFI [8]: 178000; EC50 [9]: 4.4 nM; Max_MFI [9]: 371000; EC50 [10]: 2.77 nM; Max_MFI [10]: 244000 |
